# US20020119572
# T1: gold nanoparticle linked S18 peptide
# T1 chain: CGGKETAAAKFERQHMDS
# B1: S-protein of Ribonuclease S (protein)
# chain: SSSNYCNQMMKSRNLTKDRCKPVNTFVHESLADVQAVCSQKNVACKNGQTNCYQSYSTMSITDCRETGSSKYPNCAYKTTQANKHIIVACEGNPYVPVHFDASV
# Biological target: T1, gold nanoparticle linked S18 peptide
protein,measurement,value
B1,RF power level at 50% RNase S activity (poly C hydrolysis),-4 dBm at the 50% activity
same,"RNase S activity (digested polyC, absorption at 280 nm) with RFMF on and off",The activity with the RFMF on was less than with the RFMF off
